Data as given in article PMC8183418.
Like-named read-outs stand apart in the source and are kept apart here.

Assays:
[1] = target: T1, ISG20 (UniProt Q96AZ6 1-181); test: EMSA
[2] = target: T1, ISG20; test: EMSA; remark: listed apart in the source

T1 sequence (Q96AZ6 whole entry): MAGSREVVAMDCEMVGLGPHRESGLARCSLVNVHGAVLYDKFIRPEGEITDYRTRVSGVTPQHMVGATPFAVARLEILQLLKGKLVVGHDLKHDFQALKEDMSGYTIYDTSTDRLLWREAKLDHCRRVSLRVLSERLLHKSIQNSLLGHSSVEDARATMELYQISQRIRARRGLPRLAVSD

Binder | binding result [1] | binding result [2]
GGTUGTUUGUAGGATTUAGUGUUG (ssDNA, all deoxycytidines replaced by deoxyuridine; U = dU) [035: dU-containing (-) ssDNA] | binds | 
CGGCGCTGAATCCTGCGGACGACC (ssDNA) [036: (+) ssDNA] |  | binds
GGTCGTCCGCAGGATTCAGCGCCG (ssDNA) [033: (-) ssDNA] |  | binds
